These results are taken from publication PMC4176381, “A combination of computational and experimental approaches identifies DNA sequence constraints associated with target site binding specificity of the transcription factor CSL”.

Data set [1] addresses T1, GST-Su(H) (CSL) (UniProt P28159 110-594). Nature of the data set: competition; EMSA, labeled M1 probe; 2.4-fold vs M3; ITC: 50 mM sodium phosphate pH 6.5, 150 mM NaCl, 10 C (10 uM CSL in cell, 100 uM DNA in syringe). EMSA: 150 mM KCl, 50 mM Tris pH 7.4, 1 mM DTT, 2% polyvinyl alcohol, 30 ng/ul poly(dI-dC), on ice 30 min, 25 fmol biotin probe in 5 ul. Conditions: protein: recombinant; tags: N-terminal GST; blunt. (In general: Mobility shift assays separate free from complexed probe on a gel.)

Data set [2] deals with T1, GST-Su(H) (CSL). The data set can be described thus: competition; EMSA, labeled M1 probe; 2.84-fold at 10x; ITC: 50 mM sodium phosphate pH 6.5, 150 mM NaCl, 10 C (10 uM CSL in cell, 100 uM DNA in syringe). EMSA: 150 mM KCl, 50 mM Tris pH 7.4, 1 mM DTT, 2% polyvinyl alcohol, 30 ng/ul poly(dI-dC), on ice 30 min, 25 fmol biotin probe in 5 ul. Conditions: protein: recombinant; tags: N-terminal GST; blunt.

Data set [3] has as its target T1, GST-Su(H) (CSL). The data set can be described thus: competition; not detectable at 125x excess; ITC: 50 mM sodium phosphate pH 6.5, 150 mM NaCl, 10 C (10 uM CSL in cell, 100 uM DNA in syringe). EMSA: 150 mM KCl, 50 mM Tris pH 7.4, 1 mM DTT, 2% polyvinyl alcohol, 30 ng/ul poly(dI-dC), on ice 30 min, 25 fmol biotin probe in 5 ul. Conditions: protein: recombinant; tags: N-terminal GST; blunt.

For data set [4], the target named is T2, CSL (RBPJ) (Mus musculus, UniProt P31266 53-474). Nature of the data set: ITC; K = 2.2 +/- 1.4 x10^7 M-1; n=3; ITC: 50 mM sodium phosphate pH 6.5, 150 mM NaCl, 10 C (10 uM CSL in cell, 100 uM DNA in syringe). EMSA: 150 mM KCl, 50 mM Tris pH 7.4, 1 mM DTT, 2% polyvinyl alcohol, 30 ng/ul poly(dI-dC), on ice 30 min, 25 fmol biotin probe in 5 ul. Conditions: protein: recombinant; tags: GST tag cleaved off. For orientation: ITC needs no label: the signal is the heat of the interaction.

Data set [5] deals with T2, CSL (RBPJ). Nature of the data set: ITC; K = 5.9 +/- 1.0 x10^5 M-1; n=3; ITC: 50 mM sodium phosphate pH 6.5, 150 mM NaCl, 10 C (10 uM CSL in cell, 100 uM DNA in syringe). EMSA: 150 mM KCl, 50 mM Tris pH 7.4, 1 mM DTT, 2% polyvinyl alcohol, 30 ng/ul poly(dI-dC), on ice 30 min, 25 fmol biotin probe in 5 ul. Conditions: protein: recombinant; tags: GST tag cleaved off.
For data set [6], the target named is T1, GST-Su(H) (CSL). Nature of the data set: competition; failed to compete at 125x; ITC: 50 mM sodium phosphate pH 6.5, 150 mM NaCl, 10 C (10 uM CSL in cell, 100 uM DNA in syringe). EMSA: 150 mM KCl, 50 mM Tris pH 7.4, 1 mM DTT, 2% polyvinyl alcohol, 30 ng/ul poly(dI-dC), on ice 30 min, 25 fmol biotin probe in 5 ul. Conditions: protein: recombinant; tags: N-terminal GST; blunt.

The target in data set [7] is T2, CSL (RBPJ). The data set can be described thus: ITC; no binding detected; ITC: 50 mM sodium phosphate pH 6.5, 150 mM NaCl, 10 C (10 uM CSL in cell, 100 uM DNA in syringe). EMSA: 150 mM KCl, 50 mM Tris pH 7.4, 1 mM DTT, 2% polyvinyl alcohol, 30 ng/ul poly(dI-dC), on ice 30 min, 25 fmol biotin probe in 5 ul. Conditions: protein: recombinant; tags: GST tag cleaved off.

Data set [8] deals with T2, CSL (RBPJ). The data set can be described thus: ITC; K = 2.0 +/- 0.5 x10^6 M-1; n=3; ITC: 50 mM sodium phosphate pH 6.5, 150 mM NaCl, 10 C (10 uM CSL in cell, 100 uM DNA in syringe). EMSA: 150 mM KCl, 50 mM Tris pH 7.4, 1 mM DTT, 2% polyvinyl alcohol, 30 ng/ul poly(dI-dC), on ice 30 min, 25 fmol biotin probe in 5 ul. Conditions: protein: recombinant; tags: GST tag cleaved off.

In data set [9] the target is T1, GST-Su(H) (CSL). The data set can be described thus: EMSA; labeled probe; self-competes at 25x excess; ITC: 50 mM sodium phosphate pH 6.5, 150 mM NaCl, 10 C (10 uM CSL in cell, 100 uM DNA in syringe). EMSA: 150 mM KCl, 50 mM Tris pH 7.4, 1 mM DTT, 2% polyvinyl alcohol, 30 ng/ul poly(dI-dC), on ice 30 min, 25 fmol biotin probe in 5 ul. Conditions: protein: recombinant; tags: N-terminal GST; label: 3' biotin when used as probe; blunt.

Broadly, the Kd is a measure of binding affinity in units of concentration.

T1 sequence (P28159 110-594): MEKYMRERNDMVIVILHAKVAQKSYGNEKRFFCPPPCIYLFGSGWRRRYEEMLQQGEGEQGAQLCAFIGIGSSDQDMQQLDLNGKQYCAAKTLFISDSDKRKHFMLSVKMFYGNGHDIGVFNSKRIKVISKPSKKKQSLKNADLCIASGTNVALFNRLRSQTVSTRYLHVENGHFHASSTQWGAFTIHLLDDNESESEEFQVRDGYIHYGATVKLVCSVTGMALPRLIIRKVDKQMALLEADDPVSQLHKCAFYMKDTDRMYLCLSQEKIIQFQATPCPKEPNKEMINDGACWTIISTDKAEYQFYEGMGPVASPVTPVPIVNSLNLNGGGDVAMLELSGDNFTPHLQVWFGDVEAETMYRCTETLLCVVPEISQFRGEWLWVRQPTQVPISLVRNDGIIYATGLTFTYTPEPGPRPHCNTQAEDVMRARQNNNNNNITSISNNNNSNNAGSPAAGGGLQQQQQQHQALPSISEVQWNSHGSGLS
T2 sequence (P31266 53-474): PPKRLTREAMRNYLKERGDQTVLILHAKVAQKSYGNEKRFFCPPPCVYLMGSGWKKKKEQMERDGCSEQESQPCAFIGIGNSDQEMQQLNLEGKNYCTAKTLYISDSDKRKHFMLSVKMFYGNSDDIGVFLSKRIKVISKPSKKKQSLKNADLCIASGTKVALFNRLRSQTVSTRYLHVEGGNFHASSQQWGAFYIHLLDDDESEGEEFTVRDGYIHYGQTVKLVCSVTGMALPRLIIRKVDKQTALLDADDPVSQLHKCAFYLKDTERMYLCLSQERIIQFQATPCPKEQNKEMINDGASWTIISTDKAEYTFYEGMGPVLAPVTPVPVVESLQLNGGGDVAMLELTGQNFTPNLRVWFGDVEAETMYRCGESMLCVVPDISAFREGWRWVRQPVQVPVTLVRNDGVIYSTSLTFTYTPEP
T1 sequence (P28159 110-594): as the sequence (P28159 110-594) above

B1: M4 (S3, CGTGTGAA) (dsDNA)
DNA 1: ACCGAAACCGTGTGAACTGGTAGAAAG
DNA 2: CTTTCTACCAGTTCACACGGTTTCGGT
As for B1, the binding signal in data set [1] was 9 fold difference vs M1 at 25x excess.

B2: M3 (S2, TGTGGGAA) (dsDNA)
DNA 1: ACCGAAACTGTGGGAACTGGTAGAAAG
DNA 2: CTTTCTACCAGTTCCCACTGTTTCGGT
As to B2, the binding signal in [2] is 3.67 fold difference vs M1 at 25x excess.

B3: M11 (S10, CATGGGGA) (dsDNA)
DNA 1: ACCGAAACCATGGGGACTGGTAGAAAG
DNA 2: CTTTCTACCAGTCCCCATGGTTTCGGT
In the case of B3, the binding result in data set [3] is listed as “no binding”.

B4: ITC duplex CGTGGGAA (dsDNA)
DNA 1: GTTACCGTGGGAAAGAAAG
DNA 2: CTTTCTTTCCCACGGTAAC
For B4, in [4], the Kd is 60 nM.

B5: ITC duplex CGTGTGAC (dsDNA)
DNA 1: GTTACCGTGTGACAGAAAG
DNA 2: CTTTCTGTCACACGGTAAC
In the case of B5, the Kd in data set [5] is 1720 nM.

B6: M8 (S7, TATAAGAA) (dsDNA)
DNA 1: ACCGAAACTATAAGAACTGGTAGAAAG
DNA 2: CTTTCTACCAGTTCTTATAGTTTCGGT
For the molecule B6, the binding result in data set [6] is “no binding”.

B7: ITC duplex TCATACCT (dsDNA)
DNA 1: GCTACTCATACCTAGAACG
DNA 2: CGTTCTAGGTATGAGTAGC
B7: the binding result in [7] is “no binding”.

B8: ITC duplex TGTGGGAA (dsDNA)
DNA 1: GTTACTGTGGGAAAGAAAG
DNA 2: CTTTCTTTCCCACAGTAAC
On to B8, for which the dissociation constant Kd in [8] came to 500 nM.

B9: M1 (S1, CGTGGGAA) (dsDNA)
DNA 1: ACCGAAACCGTGGGAACTGGTAGAAAG
DNA 2: CTTTCTACCAGTTCCCACGGTTTCGGT
On to B9, for which, in [9], the binding result was “binds”.
